Experimental data taken from patent US20230340111A1 (published 2023).
Like-named read-outs stand apart in the source and are kept apart here.

Columns and labels:
[1] = molecular target: T1, human FOLR1 expressed on SKOV-3 ovarian carcinoma cells (human, UniProt P15328 25-234); experiment: saturation binding of 131I-labelled untagged VHH on SKOV-3 cells
T1 construct: Naturally expressed receptor on SKOV-3 cells; also called human FOLR1pos SKOV-3 cancer cells; human FOLR1-expressing cell line SKOV-3
T1 sequence (P15328 25-234 limits assumed): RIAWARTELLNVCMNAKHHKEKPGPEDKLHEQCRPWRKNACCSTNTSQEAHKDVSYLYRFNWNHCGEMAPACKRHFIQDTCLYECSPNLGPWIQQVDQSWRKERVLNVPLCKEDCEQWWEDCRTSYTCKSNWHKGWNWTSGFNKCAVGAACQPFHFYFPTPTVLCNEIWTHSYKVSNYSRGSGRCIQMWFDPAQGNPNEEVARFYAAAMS
Protocol: In a first part, their in vitro behaviour was assessed by means of investigating their cellular binding and retention over time. The binding potential of the resulting radioconjugates was assessed to confirm that this was not affected by the introduction of ¹³¹I-SGMIB into the amino acid sequence of the different VHHs. To this, human FOLR1^pos SKOV-3 cancer cells were incubated with serial dilutions with concentrations ranging from 0 to 300 nM of the different ¹³¹I-labelled, His₆ tagged VHHs. A 100-fold excess of the corresponding unlabeled VHH was added in parallel to saturate the human FOLR1 receptors expressed on cancer cells, to assess non-specific binding.
A1 and A2 parental untagged VHH’s and derivatives were radiolabeled with theranostic isotope ¹³¹I, as described in example 3, and subjected to saturation binding studies as described in example 6.

[2] = molecular target: T1, human FOLR1 expressed on SKOV-3 ovarian …; experiment: as above; remark: listed apart in the source
[3] = molecular target: T1, human FOLR1 expressed on SKOV-3 ovarian …; experiment: cellular retention on SKOV-3 cells: 10 nM 131I-VHH 1 h at 4 C, then up to 24 h at 37 C; membrane-bound plus internalized fraction
In short: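 His₆-tagged and untagged ¹³¹I-VHHs were tested, with a 100-fold excess of unlabeled VHH for non-specific binding. Unbound and dissociated fractions were collected. Membrane-bound label was stripped with 0.05 M glycine pH 2.8, and internalized label was recovered by 1 M NaOH solubilization.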

EC50 [1]: 1.1 nM | EC50 [2]: 1.2 nM | cell-associated fraction of initial bound activity after 24 h [3]: ~40%
B1: 131I-labeled untagged VHH A1 (VHH)
VHH: DVQLVESGGGLVQPGGSLRLSCAASESIFSRNHMSWYRQAPGKQRELAAIITSDGNTNYPDSVKGRFTISRDNAKNTVYLQMNSLKPEDTAVYYCNTFGRSVAGFYDYWGQGTQVTVSS
modifications: [131I]SGMIB conjugated to lysine side-chain amine groups
